Experimental data: article PMC2234252 (The Journal of Cell Biology, 2008)

T1: hZwint-1 (human, UniProt O95229 1-277)
T1 sequence (looked up): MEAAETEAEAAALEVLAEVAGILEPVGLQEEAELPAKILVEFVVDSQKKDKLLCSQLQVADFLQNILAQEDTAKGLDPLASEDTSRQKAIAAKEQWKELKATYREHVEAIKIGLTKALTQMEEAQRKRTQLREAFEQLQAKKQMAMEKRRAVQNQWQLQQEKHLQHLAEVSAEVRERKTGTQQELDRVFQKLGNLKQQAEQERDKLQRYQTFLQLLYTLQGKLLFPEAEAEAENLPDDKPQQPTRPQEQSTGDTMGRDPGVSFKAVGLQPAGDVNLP

B1: hZW10 full length (aa 1–779) (natural protein, human, UniProt O43264 1-779, looked up)
chain: MASFVTEVLAHSGRLEKEDLGTRISRLTRRVEEIKGEVCNMISKKYSEFLPSMQSAQGLITQVDKLSEDIDLLKSRIESEVRRDLHVSTGEFTDLKQQLERDSVVLSLLKQLQEFSTAIEEYNCALTEKKYVTGAQRLEEAQKCLKLLKSRKCFDLKILKSLSMELTIQKQNILYHLGEEWQKLIVWKFPPSKDTSSLESYLQTELHLYTEQSHKEEKTPMPPISSVLLAFSVLGELHSKLKSFGQMLLKYILRPLASCPSLHAVIESQPNIVIIRFESIMTNLEYPSPSEVFTKIRLVLEVLQKQLLDLPLDTDLENEKTSTVPLAEMLGDMIWEDLSECLIKNCLVYSIPTNSSKLQQYEEIIQSTEEFENALKEMRFLKGDTTDLLKYARNINSHFANKKCQDVIVAARNLMTSEIHNTVKIIPDSKINVPELPTPDEDNKLEVQKVSNTQYHEVMNLEPENTLDQHSFSLPTCRISESVKKLMELAYQTLLEATTSSDQCAVQLFYSVRNIFHLFHDVVPTYHKENLQKLPQLAAIHHNNCMYIAHHLLTLGHQFRLRLAPILCDGTATFVDLVPGFRRLGTECFLAQMRAQKGELLERLSSARNFSNMDDEENYSAASKAVRQVLHQLKRLGIVWQDVLPVNIYCKAMGTLLNTAISEVIGKITALEDISTEDGDRLYSLCKTVMDEGPQVFAPLSEESKNKKYQEEVPVYVPKWMPFKELMMMLQASLQEIGDRWADGKGPLAAAFSSSEVKALIRALFQNTERRAAALAKIK
B2: hZW10 C2 (aa 1–698) (domain or fragment, human, UniProt O43264 1-698, looked up)
chain: MASFVTEVLAHSGRLEKEDLGTRISRLTRRVEEIKGEVCNMISKKYSEFLPSMQSAQGLITQVDKLSEDIDLLKSRIESEVRRDLHVSTGEFTDLKQQLERDSVVLSLLKQLQEFSTAIEEYNCALTEKKYVTGAQRLEEAQKCLKLLKSRKCFDLKILKSLSMELTIQKQNILYHLGEEWQKLIVWKFPPSKDTSSLESYLQTELHLYTEQSHKEEKTPMPPISSVLLAFSVLGELHSKLKSFGQMLLKYILRPLASCPSLHAVIESQPNIVIIRFESIMTNLEYPSPSEVFTKIRLVLEVLQKQLLDLPLDTDLENEKTSTVPLAEMLGDMIWEDLSECLIKNCLVYSIPTNSSKLQQYEEIIQSTEEFENALKEMRFLKGDTTDLLKYARNINSHFANKKCQDVIVAARNLMTSEIHNTVKIIPDSKINVPELPTPDEDNKLEVQKVSNTQYHEVMNLEPENTLDQHSFSLPTCRISESVKKLMELAYQTLLEATTSSDQCAVQLFYSVRNIFHLFHDVVPTYHKENLQKLPQLAAIHHNNCMYIAHHLLTLGHQFRLRLAPILCDGTATFVDLVPGFRRLGTECFLAQMRAQKGELLERLSSARNFSNMDDEENYSAASKAVRQVLHQLKRLGIVWQDVLPVNIYCKAMGTLLNTAISEVIGKITALEDISTEDGDRLYSLCKTVMDEGPQVFA
B3: hZW10 N1 (aa 52–779) (domain or fragment, human, UniProt O43264 52-779, looked up)
chain: SMQSAQGLITQVDKLSEDIDLLKSRIESEVRRDLHVSTGEFTDLKQQLERDSVVLSLLKQLQEFSTAIEEYNCALTEKKYVTGAQRLEEAQKCLKLLKSRKCFDLKILKSLSMELTIQKQNILYHLGEEWQKLIVWKFPPSKDTSSLESYLQTELHLYTEQSHKEEKTPMPPISSVLLAFSVLGELHSKLKSFGQMLLKYILRPLASCPSLHAVIESQPNIVIIRFESIMTNLEYPSPSEVFTKIRLVLEVLQKQLLDLPLDTDLENEKTSTVPLAEMLGDMIWEDLSECLIKNCLVYSIPTNSSKLQQYEEIIQSTEEFENALKEMRFLKGDTTDLLKYARNINSHFANKKCQDVIVAARNLMTSEIHNTVKIIPDSKINVPELPTPDEDNKLEVQKVSNTQYHEVMNLEPENTLDQHSFSLPTCRISESVKKLMELAYQTLLEATTSSDQCAVQLFYSVRNIFHLFHDVVPTYHKENLQKLPQLAAIHHNNCMYIAHHLLTLGHQFRLRLAPILCDGTATFVDLVPGFRRLGTECFLAQMRAQKGELLERLSSARNFSNMDDEENYSAASKAVRQVLHQLKRLGIVWQDVLPVNIYCKAMGTLLNTAISEVIGKITALEDISTEDGDRLYSLCKTVMDEGPQVFAPLSEESKNKKYQEEVPVYVPKWMPFKELMMMLQASLQEIGDRWADGKGPLAAAFSSSEVKALIRALFQNTERRAAALAKIK
B4: hZW10 C9 (aa 1–139) (domain or fragment, human, UniProt O43264 1-139, looked up)
chain: MASFVTEVLAHSGRLEKEDLGTRISRLTRRVEEIKGEVCNMISKKYSEFLPSMQSAQGLITQVDKLSEDIDLLKSRIESEVRRDLHVSTGEFTDLKQQLERDSVVLSLLKQLQEFSTAIEEYNCALTEKKYVTGAQRLE
B5: hZW10 C8 (aa 1–224) (domain or fragment, human, UniProt O43264 1-224, looked up)
chain: MASFVTEVLAHSGRLEKEDLGTRISRLTRRVEEIKGEVCNMISKKYSEFLPSMQSAQGLITQVDKLSEDIDLLKSRIESEVRRDLHVSTGEFTDLKQQLERDSVVLSLLKQLQEFSTAIEEYNCALTEKKYVTGAQRLEEAQKCLKLLKSRKCFDLKILKSLSMELTIQKQNILYHLGEEWQKLIVWKFPPSKDTSSLESYLQTELHLYTEQSHKEEKTPMPPI
B6: hZW10 C1 (aa 1–772) (domain or fragment, human, UniProt O43264 1-772, looked up)
chain: MASFVTEVLAHSGRLEKEDLGTRISRLTRRVEEIKGEVCNMISKKYSEFLPSMQSAQGLITQVDKLSEDIDLLKSRIESEVRRDLHVSTGEFTDLKQQLERDSVVLSLLKQLQEFSTAIEEYNCALTEKKYVTGAQRLEEAQKCLKLLKSRKCFDLKILKSLSMELTIQKQNILYHLGEEWQKLIVWKFPPSKDTSSLESYLQTELHLYTEQSHKEEKTPMPPISSVLLAFSVLGELHSKLKSFGQMLLKYILRPLASCPSLHAVIESQPNIVIIRFESIMTNLEYPSPSEVFTKIRLVLEVLQKQLLDLPLDTDLENEKTSTVPLAEMLGDMIWEDLSECLIKNCLVYSIPTNSSKLQQYEEIIQSTEEFENALKEMRFLKGDTTDLLKYARNINSHFANKKCQDVIVAARNLMTSEIHNTVKIIPDSKINVPELPTPDEDNKLEVQKVSNTQYHEVMNLEPENTLDQHSFSLPTCRISESVKKLMELAYQTLLEATTSSDQCAVQLFYSVRNIFHLFHDVVPTYHKENLQKLPQLAAIHHNNCMYIAHHLLTLGHQFRLRLAPILCDGTATFVDLVPGFRRLGTECFLAQMRAQKGELLERLSSARNFSNMDDEENYSAASKAVRQVLHQLKRLGIVWQDVLPVNIYCKAMGTLLNTAISEVIGKITALEDISTEDGDRLYSLCKTVMDEGPQVFAPLSEESKNKKYQEEVPVYVPKWMPFKELMMMLQASLQEIGDRWADGKGPLAAAFSSSEVKALIRALFQNTERRA
B7: hZW10 C5 (aa 1–410) (domain or fragment, human, UniProt O43264 1-410, looked up)
chain: MASFVTEVLAHSGRLEKEDLGTRISRLTRRVEEIKGEVCNMISKKYSEFLPSMQSAQGLITQVDKLSEDIDLLKSRIESEVRRDLHVSTGEFTDLKQQLERDSVVLSLLKQLQEFSTAIEEYNCALTEKKYVTGAQRLEEAQKCLKLLKSRKCFDLKILKSLSMELTIQKQNILYHLGEEWQKLIVWKFPPSKDTSSLESYLQTELHLYTEQSHKEEKTPMPPISSVLLAFSVLGELHSKLKSFGQMLLKYILRPLASCPSLHAVIESQPNIVIIRFESIMTNLEYPSPSEVFTKIRLVLEVLQKQLLDLPLDTDLENEKTSTVPLAEMLGDMIWEDLSECLIKNCLVYSIPTNSSKLQQYEEIIQSTEEFENALKEMRFLKGDTTDLLKYARNINSHFANKKCQDVIVA
B8: hZW10 C7 (aa 1–318) (domain or fragment, human, UniProt O43264 1-318, looked up)
chain: MASFVTEVLAHSGRLEKEDLGTRISRLTRRVEEIKGEVCNMISKKYSEFLPSMQSAQGLITQVDKLSEDIDLLKSRIESEVRRDLHVSTGEFTDLKQQLERDSVVLSLLKQLQEFSTAIEEYNCALTEKKYVTGAQRLEEAQKCLKLLKSRKCFDLKILKSLSMELTIQKQNILYHLGEEWQKLIVWKFPPSKDTSSLESYLQTELHLYTEQSHKEEKTPMPPISSVLLAFSVLGELHSKLKSFGQMLLKYILRPLASCPSLHAVIESQPNIVIIRFESIMTNLEYPSPSEVFTKIRLVLEVLQKQLLDLPLDTDLEN
B9: hZW10 C6 (aa 1–356) (domain or fragment, human, UniProt O43264 1-356, looked up)
chain: MASFVTEVLAHSGRLEKEDLGTRISRLTRRVEEIKGEVCNMISKKYSEFLPSMQSAQGLITQVDKLSEDIDLLKSRIESEVRRDLHVSTGEFTDLKQQLERDSVVLSLLKQLQEFSTAIEEYNCALTEKKYVTGAQRLEEAQKCLKLLKSRKCFDLKILKSLSMELTIQKQNILYHLGEEWQKLIVWKFPPSKDTSSLESYLQTELHLYTEQSHKEEKTPMPPISSVLLAFSVLGELHSKLKSFGQMLLKYILRPLASCPSLHAVIESQPNIVIIRFESIMTNLEYPSPSEVFTKIRLVLEVLQKQLLDLPLDTDLENEKTSTVPLAEMLGDMIWEDLSECLIKNCLVYSIPTNSS
B10: hZW10 C4 (aa 1–496) (domain or fragment, human, UniProt O43264 1-496, looked up)
chain: MASFVTEVLAHSGRLEKEDLGTRISRLTRRVEEIKGEVCNMISKKYSEFLPSMQSAQGLITQVDKLSEDIDLLKSRIESEVRRDLHVSTGEFTDLKQQLERDSVVLSLLKQLQEFSTAIEEYNCALTEKKYVTGAQRLEEAQKCLKLLKSRKCFDLKILKSLSMELTIQKQNILYHLGEEWQKLIVWKFPPSKDTSSLESYLQTELHLYTEQSHKEEKTPMPPISSVLLAFSVLGELHSKLKSFGQMLLKYILRPLASCPSLHAVIESQPNIVIIRFESIMTNLEYPSPSEVFTKIRLVLEVLQKQLLDLPLDTDLENEKTSTVPLAEMLGDMIWEDLSECLIKNCLVYSIPTNSSKLQQYEEIIQSTEEFENALKEMRFLKGDTTDLLKYARNINSHFANKKCQDVIVAARNLMTSEIHNTVKIIPDSKINVPELPTPDEDNKLEVQKVSNTQYHEVMNLEPENTLDQHSFSLPTCRISESVKKLMELAYQTLLE
B11: hZW10 C3 (aa 1–560) (domain or fragment, human, UniProt O43264 1-560, looked up)
chain: MASFVTEVLAHSGRLEKEDLGTRISRLTRRVEEIKGEVCNMISKKYSEFLPSMQSAQGLITQVDKLSEDIDLLKSRIESEVRRDLHVSTGEFTDLKQQLERDSVVLSLLKQLQEFSTAIEEYNCALTEKKYVTGAQRLEEAQKCLKLLKSRKCFDLKILKSLSMELTIQKQNILYHLGEEWQKLIVWKFPPSKDTSSLESYLQTELHLYTEQSHKEEKTPMPPISSVLLAFSVLGELHSKLKSFGQMLLKYILRPLASCPSLHAVIESQPNIVIIRFESIMTNLEYPSPSEVFTKIRLVLEVLQKQLLDLPLDTDLENEKTSTVPLAEMLGDMIWEDLSECLIKNCLVYSIPTNSSKLQQYEEIIQSTEEFENALKEMRFLKGDTTDLLKYARNINSHFANKKCQDVIVAARNLMTSEIHNTVKIIPDSKINVPELPTPDEDNKLEVQKVSNTQYHEVMNLEPENTLDQHSFSLPTCRISESVKKLMELAYQTLLEATTSSDQCAVQLFYSVRNIFHLFHDVVPTYHKENLQKLPQLAAIHHNNCMYIAHHLLTLGHQFR

These binders were tested against T1, hZwint-1 (assay: two-hybrid).

β-galactosidase assay	Binder
187	B1
2.6	B2
2.14	B3
445	B4
233	B5
3.4	B6
26.6	B7
132	B8
275	B9
1	B10
2.5	B11
